Results from the Immune Epitope Database (IEDB).

Key:
HLA-A*02:03 [1] = assay: IEDB peptide-MHC binding, purified MHC/competitive/fluorescence; filed as Kd, often an IC50 or EC50 that approximates it; ≥ and ≤ were set here for values at or beyond the usual limits of such assays
HLA-B*18:01 = assay: as above
HLA-B*15:17 = assay: as above
HLA-A*02:19 [2] = assay: as above
HLA-A*29:02 [3] = assay: as above
HLA-B*46:01 = assay: as above
HLA-B*27:03 = assay: as above
HLA-A*23:01 [4] = assay: as above
HLA-A*02:01 [5] = assay: as above
HLA-A*02:16 [6] = assay: as above
HLA-A*02:12 [7] = assay: as above
HLA-B*57:01 = assay: as above
HLA-A*69:01 = assay: as above
HLA-B*51:01 = assay: as above
HLA-A*03:01 [8] = assay: as above
HLA-A*26:01 = assay: as above
HLA-A*24:03 [9] = assay: as above
HLA-A*31:01 = assay: as above; details: source organism: Escherichia coli E110019
HLA-B*39:01 = assay: as above
HLA-A*68:02 [10] = assay: as above
HLA-B*15:01 = assay: as above
HLA-A*02:11 [11] = assay: as above
HLA-A*02:01 [12] = assay: IEDB peptide-MHC binding, purified MHC/competitive/fluorescence; ≥ and ≤ were set here for values at or beyond the usual limits of such assays; details: source organism: Zaire ebolavirus
HLA-A*24:02 = assay: as above; details: source organism: Zaire ebolavirus
HLA-B*08:01 = assay: as above
HLA-B*07:02 [13] = assay: as above
HLA-A*02:03 [14] = assay: IEDB peptide-MHC binding, purified MHC/direct/fluorescence; filed as Kd, often an IC50 or EC50 that approximates it; ≥ and ≤ were set here for values at or beyond the usual limits of such assays; details: source organism: Zaire ebolavirus
HLA-A*02:19 [15] = assay: as above; details: source organism: Zaire ebolavirus
HLA-A*29:02 [16] = assay: as above; details: source organism: Zaire ebolavirus
HLA-A*23:01 [17] = assay: as above; details: source organism: Zaire ebolavirus
HLA-A*02:16 [18] = assay: as above; details: source organism: Zaire ebolavirus
HLA-A*02:12 [19] = assay: as above; details: source organism: Zaire ebolavirus
HLA-A*68:02 [20] = assay: as above; details: source organism: Zaire ebolavirus
HLA-A*03:01 [21] = assay: as above; details: source organism: Zaire ebolavirus
HLA-A*24:03 [22] = assay: as above; details: source organism: Zaire ebolavirus
HLA-B*07:02 [23] = assay: as above; details: source organism: Zaire ebolavirus
HLA-A*02:11 [24] = assay: as above; details: source organism: Zaire ebolavirus
HLA-A*11:01 = assay: IEDB peptide-MHC binding, purified MHC/competitive/fluorescence; ≥ and ≤ were set here for values at or beyond the usual limits of such assays
HLA-A*03:01 [25] = assay: as above; details: source organism: Variola virus
[26] = source organism: Escherichia coli E110019
[27] = source organism: Zaire ebolavirus
[28] = source organism: Giardia lamblia ATCC 50803

## SQLPPACPV
HLA-A*02:03 [1]; source organism: Homo sapiens
  Kd: ≥ 20 µM
HLA-B*18:01; source organism: Homo sapiens
  Kd: ≥ 20 µM
HLA-B*15:17; source organism: Homo sapiens
  Kd: ≥ 20 µM
HLA-A*02:19 [2]; source organism: Homo sapiens
  Kd: ≥ 20 µM
HLA-A*29:02 [3]; source organism: Homo sapiens
  Kd: ≥ 20 µM
HLA-B*46:01; source organism: Homo sapiens
  Kd: ≥ 20 µM
HLA-B*27:03; source organism: Homo sapiens
  Kd: ≥ 20 µM
HLA-A*23:01 [4]; source organism: Homo sapiens
  Kd: ≥ 20 µM
HLA-A*02:01 [5]; source organism: Homo sapiens
  Kd: 0.0306 µM
HLA-A*02:16 [6]; source organism: Homo sapiens
  Kd: ≥ 20 µM
HLA-A*02:12 [7]; source organism: Homo sapiens
  Kd: 0.17 µM
HLA-B*57:01; source organism: Homo sapiens
  Kd: ≥ 20 µM
HLA-A*69:01; source organism: Homo sapiens
  Kd: ≥ 20 µM
HLA-B*51:01; source organism: Homo sapiens
  Kd: ≥ 20 µM
HLA-A*03:01 [8]; source organism: Homo sapiens
  Kd: ≥ 20 µM
HLA-A*26:01; source organism: Homo sapiens
  Kd: ≥ 20 µM
HLA-A*24:03 [9]; source organism: Homo sapiens
  Kd: ≥ 20 µM

## RAFWGQVQK
HLA-A*31:01
  Kd: 0.0027 µM
HLA-A*02:03 [1]; [26]
  Kd: ≥ 20 µM
HLA-B*18:01; [26]
  Kd: ≥ 20 µM
HLA-B*39:01; [26]
  Kd: ≥ 20 µM
HLA-A*02:19 [2]; [26]
  Kd: ≥ 20 µM
HLA-B*46:01; [26]
  Kd: ≥ 20 µM
HLA-A*23:01 [4]; [26]
  Kd: ≥ 20 µM
HLA-A*02:01 [5]; [26]
  Kd: ≥ 20 µM
HLA-A*02:16 [6]; [26]
  Kd: ≥ 20 µM
HLA-A*02:12 [7]; [26]
  Kd: ≥ 20 µM
HLA-A*68:02 [10]; [26]
  Kd: ≥ 20 µM
HLA-B*15:01; [26]
  Kd: ≥ 20 µM
HLA-B*57:01; [26]
  Kd: ≥ 20 µM
HLA-A*69:01; [26]
  Kd: ≥ 20 µM
HLA-B*51:01; [26]
  Kd: ≥ 20 µM
HLA-A*26:01; [26]
  Kd: ≥ 20 µM
HLA-A*24:03 [9]; [26]
  Kd: ≥ 20 µM
HLA-A*02:11 [11]; [26]
  Kd: ≥ 20 µM

## APFARLLNL
HLA-B*18:01; [27]
  Kd: ≥ 20 µM
HLA-B*39:01; [27]
  Kd: ≥ 20 µM
HLA-B*15:17; [27]
  Kd: ≥ 20 µM
HLA-B*46:01; [27]
  Kd: ≥ 20 µM
HLA-B*27:03; [27]
  Kd: ≥ 20 µM
HLA-A*02:01 [5]; [27]
  Kd: ≥ 20 µM
HLA-B*15:01; [27]
  Kd: ≥ 20 µM
HLA-B*57:01; [27]
  Kd: ≥ 20 µM
HLA-A*69:01; [27]
  Kd: ≥ 20 µM
HLA-B*51:01; [27]
  Kd: ≥ 20 µM
HLA-A*26:01; [27]
  Kd: ≥ 20 µM
HLA-A*02:01 [12]
  IC50: ≥ 161 µM
HLA-A*24:02
  IC50: 5.54 µM
HLA-B*08:01; [27]
  IC50: 7.08 µM
HLA-B*07:02 [13]; [27]
  IC50: 0.633 µM
HLA-A*02:03 [14]
  Kd: ≥ 20 µM
HLA-A*02:19 [15]
  Kd: ≥ 20 µM
HLA-A*29:02 [16]
  Kd: ≥ 20 µM
HLA-A*23:01 [17]
  Kd: ≥ 20 µM
HLA-A*02:16 [18]
  Kd: ≥ 20 µM
HLA-A*02:12 [19]
  Kd: ≥ 20 µM
HLA-A*68:02 [20]
  Kd: ≥ 20 µM
HLA-A*03:01 [21]
  Kd: ≥ 20 µM
HLA-A*24:03 [22]
  Kd: ≥ 20 µM
HLA-B*07:02 [23]
  Kd: 0.0218 µM
HLA-A*02:11 [24]
  Kd: ≥ 20 µM

## GRRTRREAI
HLA-A*11:01; [27]
  IC50: ≥ 297 µM
HLA-A*02:01 [12]
  IC50: ≥ 83.2 µM
HLA-B*08:01; [27]
  IC50: 7.09 µM
HLA-B*07:02 [13]; [27]
  IC50: ≥ 102 µM

## ALGGSCHTT
HLA-A*02:03 [1]; [28]
  Kd: ≥ 20 µM
HLA-B*18:01; [28]
  Kd: ≥ 20 µM
HLA-B*39:01; [28]
  Kd: ≥ 20 µM
HLA-B*15:17; [28]
  Kd: ≥ 20 µM
HLA-A*02:19 [2]; [28]
  Kd: 0.555 µM
HLA-A*29:02 [3]; [28]
  Kd: ≥ 20 µM
HLA-B*46:01; [28]
  Kd: ≥ 20 µM
HLA-B*27:03; [28]
  Kd: ≥ 20 µM
HLA-A*02:01 [5]; [28]
  Kd: ≥ 20 µM
HLA-A*02:16 [6]; [28]
  Kd: ≥ 20 µM
HLA-A*02:12 [7]; [28]
  Kd: ≥ 20 µM
HLA-A*68:02 [10]; [28]
  Kd: ≥ 20 µM
HLA-B*15:01; [28]
  Kd: ≥ 20 µM
HLA-B*57:01; [28]
  Kd: ≥ 20 µM
HLA-A*69:01; [28]
  Kd: ≥ 20 µM
HLA-B*51:01; [28]
  Kd: ≥ 20 µM
HLA-A*03:01 [8]; [28]
  Kd: ≥ 20 µM
HLA-A*26:01; [28]
  Kd: ≥ 20 µM
HLA-A*24:03 [9]; [28]
  Kd: ≥ 20 µM
HLA-A*02:11 [11]; [28]
  Kd: ≥ 20 µM

## MVTLRKERL
HLA-A*02:01 [12]
  IC50: 18.8 µM
HLA-A*24:02
  IC50: 4.33 µM
HLA-B*08:01; [27]
  IC50: 13.9 µM
HLA-B*07:02 [13]; [27]
  IC50: 10.4 µM

## VARKHHTKI
HLA-A*11:01; source organism: Variola virus
  IC50: ≥ 70.5 µM
HLA-B*08:01; source organism: Variola virus
  IC50: ≥ 348 µM
HLA-A*03:01 [25]
  IC50: ≥ 110 µM
HLA-B*07:02 [13]; source organism: Variola virus
  IC50: 10.5 µM
